Test results: the supplement of paper PMC7877785
± gives the uncertainty stated by the source.

Test: self-splicing fitness, log relative to wild type (ln ratio); higher = more splicing; Tetrahymena group I intron in knt gene, E. coli kanamycin selection, DiMSum; sequences stand for … in CUCUCU…GGAGGGAAAAGUUAUCAGGCAUGCACCUGGUAGCUAGUCUUUAAACCAAUAGAUUGCAUCGGUUUAAAAGGCAAGACCGUCAAAUUGCGGGAAAGGGGUCAACAGCCGUUCAGUACCAAGUCUCAGGGGAAACUUUGAGAUGGCCUUGCAAAGGGUAUGGUAAUAAGCUGACGGACAUGGUCCUAACCACGCAGCCAAGUCCUAAGUCAACAGAUCUUCUGUUGAUAUGGAUGCAGUUCACAGACUAAAUGUCGGUCGGGGAAGAUGUAUUCUUCUCAUAAGAUAUAGUCGGACCUCUCCUUAAUGGGAGCUAGCGGAUGAAGUGAUGCAACACUGGAGCCGCUGGGAACUAAUUUGUAUGCGAAAGUAUAUUGAUUAGUUUUGGAGUACUCGUGGUCG
How it was run: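 Pooled colonies went to amplicon sequencing on an Illumina HiSeq 2500 after six replicate transformations. The plates were LB agar with 100 μg/mL carbenicillin, 50 μM IPTG and 0.2% rhamnose, with or without 25 μg/mL kanamycin, incubated overnight at 37°C or 30°C. The E. coli BL21(DE3) library had all eight P1ex-region intron nucleotides randomised, the intron placed in the knt kanamycin-resistance gene on pET-22b(+). DiMSum fitness is the error-weighted combination of replicate fold changes, kanamycin against none, normalised to wild type.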

Row | Sequence | self-splicing fitness (ln) (30 °C) | self-splicing fitness (ln) (37 °C)
1 | UCUGAGCAAUAUUACGUGUA | -2.67 ± 0.18 | -0.868 ± 0.13
2 | UCUGAGCAAUAUUACGUUGA | -1.89 ± 0.1 | -0.656 ± 0.085
3 | UCUUAGCAAUAUUACGAAGG | -2 ± 0.39 | 1.19 ± 0.23
4 | UCUUAGCAAUAUUACGAAGU | -1.65 ± 0.15 | -1.42 ± 0.27
5 | UCUUAGCAAUAUUACGAGGA | -2.34 ± 0.19 | -1.58 ± 0.19
6 | UCUUAGCAAUAUUACGAUGG | -0.765 ± 0.15 | 0.551 ± 0.15
7 | UCUUAGCAAUAUUACGAUGU | -1.95 ± 0.11 | -0.623 ± 0.13
8 | UCUUAGCAAUAUUACGCCCG | -1.07 ± 0.32 | -1.34 ± 0.34
9 | UCUUAGCAAUAUUACGCCGA | -2.03 ± 0.28 | -0.379 ± 0.38
10 | UCUUAGCAAUAUUACGCGAC |  | -3.07 ± 0.32
11 | UCUUAGCAAUAUUACGCGCU | -3.3 ± 0.47 | -3.27 ± 0.39
12 | UCUUAGCAAUAUUACGCGGU | -3.5 ± 0.2 | -2.76 ± 0.26
13 | UCUUAGCAAUAUUACGGAUA | -2.68 ± 0.25 | -2.18 ± 0.24
14 | UCUUAGCAAUAUUACGGCGC | -2.61 ± 0.39 | 
15 | UCUUAGCAAUAUUACGGGAU | -3.65 ± 0.33 | -2.65 ± 0.36
16 | UCUUAGCAAUAUUACGUAGG | -1.26 ± 0.11 | 0.0819 ± 0.16
17 | UCUUAGCAAUAUUACGUAUG | -1.33 ± 0.15 | -0.892 ± 0.18
18 | UCUUAGCAAUAUUACGUAUU | -3.1 ± 0.28 | -3.54 ± 0.39
19 | UCUUAGCAAUAUUACGUGAC | -2.81 ± 0.18 | -3.32 ± 0.4
20 | UCUUAGCAAUAUUACGUGGG | -3.96 ± 0.23 | -2.21 ± 0.18

Row | Sequence | self-splicing fitness (ln) (30 °C) | self-splicing fitness (ln) (37 °C)
21 | UCUUAGCAAUAUUACGUGGU | -3.39 ± 0.16 | -3.1 ± 0.23
22 | UCUUAGCAAUAUUACGUUAU | -3.27 ± 0.28 | -2.3 ± 0.28
23 | UCUUAGCAAUAUUACGUUGA | -2.76 ± 0.22 | -1.94 ± 0.18
24 | UGAAAGCAAUAUUACGACAC | -2.11 ± 0.34 | -1.18 ± 0.4
25 | UGAAAGCAAUAUUACGACCU | -0.0194 ± 0.1 | 0.188 ± 0.12
26 | UGAAAGCAAUAUUACGACUU | -0.765 ± 0.12 | 0.423 ± 0.15
27 | UGAAAGCAAUAUUACGAGAU | -2.93 ± 0.14 | -2.18 ± 0.19
28 | UGAAAGCAAUAUUACGAGGU | -4.07 ± 0.31 | -1.72 ± 0.23
29 | UGAAAGCAAUAUUACGAUAA | -0.879 ± 0.11 | -0.129 ± 0.13
30 | UGAAAGCAAUAUUACGCACC | -0.796 ± 0.2 | -0.513 ± 0.26
31 | UGAAAGCAAUAUUACGCAGA | -1.68 ± 0.12 | -1.93 ± 0.15
32 | UGAAAGCAAUAUUACGCAUU | -3.13 ± 0.23 | 
33 | UGAAAGCAAUAUUACGCCAC |  | -2.67 ± 0.48
34 | UGAAAGCAAUAUUACGCCCG | -0.527 ± 0.15 | -0.0303 ± 0.21
35 | UGAAAGCAAUAUUACGCGGC | -3.44 ± 0.33 | -2.07 ± 0.24
36 | UGAAAGCAAUAUUACGCGUG | -0.951 ± 0.049 | -0.284 ± 0.064
37 | UGAAAGCAAUAUUACGCUCG | -1.22 ± 0.14 | 0.141 ± 0.18
38 | UGAAAGCAAUAUUACGGACU | 0.219 ± 0.079 | 0.125 ± 0.094
39 | UGAAAGCAAUAUUACGGCGA | -0.22 ± 0.1 | -0.0348 ± 0.099
